Reference: publication PMC11233663, “ZBP1 condensate formation synergizes Z-NAs recognition and signal transduction” (Cell Death & Disease, 2024)
One block for each molecule: values may come before it.

How the values were obtained:
[1] = target: Thioflavin T (ThT); assay: ThT binding assay (ThT fluorescence emission spectrum); details: read off a plot
[2] = target: human ZBP1-Zαβ (residues 1-166) (human) (UniProt Q9H171); assay: SAXS; ZBP1-Zαβ at 5 mg/mL, 20 mM Tris-HCl pH 7.4, 100 mM NaCl
[3] = target: human ZBP1-Zαβ (residues 1-166) (human) (UniProt Q9H171); assay: dynamic light scattering; ZBP1-Zαβ at 5 mg/mL (high concentration), 20 mM Tris-HCl pH 7.4, 100 mM NaCl, room temperature
[4] = target: the molecule itself; assay: negative-staining electron microscopy; purified proteins on carbon films, 0.2% uranyl acetate
[5] = target: the molecule itself; assay: SEC; Superdex 200 10/300, 20 mM Tris-HCl, 1 M NaCl, pH 7.5; elution at the void position
[6] = target: T1, mCherry-ZBP1-Zαβ (Homo sapiens, UniProt Q9H171 1-166); assay: in vitro co-condensation (microscopy); Z-RNA promotes condensates; EMSA: protein 0, 5, 10, 20 nM with 10 nM dsDNA, on ice 1 h, 6% polyacrylamide; protein and DNA stocks in 20 mM Tris-HCl pH 7.4, 100 mM NaCl; details: protein: recombinant; tags: mCherry fusion; label: 5'-FAM
T1 sequence: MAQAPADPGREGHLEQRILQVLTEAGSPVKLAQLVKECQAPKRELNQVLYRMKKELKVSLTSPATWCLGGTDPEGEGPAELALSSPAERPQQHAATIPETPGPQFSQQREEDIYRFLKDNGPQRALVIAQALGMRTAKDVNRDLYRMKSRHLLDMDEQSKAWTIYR

response ([1]; parent: est. 2300): 880
Molecule: ZBP1-RHIM 1 + 2 (residues 168-280) (from UniProt Q9H171) I206A; Q207A; I208A; G209A

response ([1]; parent: est. 1900): 1200
Molecule: ZBP1-RHIM1 (residues 168-224) (from UniProt Q9H171) I206A; Q207A; I208A; G209A

stoichiometry N [2]: 2
stoichiometry N [3]: 2
Molecule: human ZBP1-Zαβ (residues 1-166) (from UniProt Q9H171 1-166) (domain or fragment)

B1: ZBP1-RHIM1 AAAA (domain or fragment, human, UniProt Q9H171 168-224, looked up)
chain: EDSGRRAKSASIIYQHNPINMICQNGPNSWISIANSEAAAAAHGNIITRQTVSREDG
notes: also called 4 A mutant of ZBP1-RHIM 1; 4 A; source: E. coli BL21 Codonplus (DE3)-RIPL, purified (Ni-NTA, Superdex 200 10/300)
binding result [4]: binds

B2: ZBP1-RHIM1 (residues 168-224) (domain or fragment, human, UniProt Q9H171 168-224, looked up)
chain: EDSGRRAKSASIIYQHNPINMICQNGPNSWISIANSEAIQIGHGNIITRQTVSREDG
notes: the tag is inferred from the purification; source: E. coli BL21 Codonplus (DE3)-RIPL, purified (Ni-NTA, Superdex 200 10/300)
binding result [5]: binds

B3: Z-RNA (structured_RNA)
RNA: ACGCGCGCGCGUUUUUGCGCGCGCGC
modifications: 2'-O-methyl-8-methylguanosine (m8Gm), positions not given
binding result [6]: binds

B4: ZBP1-RHIM1 + 2 AAAA (domain or fragment, human, UniProt Q9H171 168-280, looked up)
chain: EDSGRRAKSASIIYQHNPINMICQNGPNSWISIANSEAAAAAHGNIITRQTVSREDGSAGPRHLPSMAPGDSSTWGTLVDPWGPQDIHMEQSILRRVQLGHSNEMRLHGVPSE
notes: also called 4 A mutant of RHIM 1 + 2; 4 A; source: E. coli BL21 Codonplus (DE3)-RIPL, purified (Ni-NTA, Superdex 200 10/300)
binding result [4]: binds

B5: ZBP1-RHIM 1 + 2 (residues 168-280) (domain or fragment, human, UniProt Q9H171 168-280, looked up)
chain: EDSGRRAKSASIIYQHNPINMICQNGPNSWISIANSEAIQIGHGNIITRQTVSREDGSAGPRHLPSMAPGDSSTWGTLVDPWGPQDIHMEQSILRRVQLGHSNEMRLHGVPSE
notes: the tag is inferred from the purification; also called RHIM 1 + 2 high-oligomer seed; source: E. coli BL21 Codonplus (DE3)-RIPL, purified (Ni-NTA, Superdex 200 10/300)
binding result [5]: binds
